Assay [1] deals with Fmut8Δ11 protein (recombinant ARFP, truncated HCV-1a F protein lacking the first 11 N-terminal amino acids) (HCV-1a) (UniProt P0C045). Nature of the assay: ELISA, serum 1/1600, day 52. For orientation: An ELISA detects its analyte on a solid surface through an enzyme-linked reagent.
The target is the same in assay [2]. The assay is described as follows: ELISA, serum 1/200, day 14.
The target is the same in assay [3]. Nature of the assay: ELISA, serum 1/400, day 29.
For assay [4] the target is unchanged. The assay is described as follows: ELISA, serum 1/800, day 52.
Assay [5] has the same target. The assay is described as follows: ELISA, serum 1/800, day 14.
The target is the same in assay [6]. Nature of the assay: ELISA, serum 1/1600, day 14.
Assay [7] shares this target. The assay is described as follows: ELISA, serum 1/1600, day 29.
For assay [8] the target is unchanged. The assay is described as follows: ELISA, serum 1/100, day 29.
The target is the same in assay [9]. The assay is described as follows: ELISA, serum 1/800, day 29.
For assay [10] the target is unchanged. The assay is described as follows: ELISA, serum 1/400, day 52.
The target is the same in assay [11]. Nature of the assay: ELISA, serum 1/50, day 29.
Assay [12] shares this target. Nature of the assay: ELISA, serum 1/100, day 14.
The target is the same in assay [13]. Nature of the assay: ELISA, serum 1/50, day 52.
Assay [14] shares this target. The assay is described as follows: ELISA, serum 1/100, day 52.
Assay [15] has the same target. Nature of the assay: ELISA, serum 1/200, day 29.
For assay [16] the target is unchanged. Nature of the assay: ELISA, serum 1/50, day 14.
For assay [17] the target is unchanged. The assay is described as follows: ELISA, serum 1/200, day 52.
For assay [18] the target is unchanged. The assay is described as follows: ELISA, serum 1/400, day 14.

For the substance “serum of mouse 12, protocol 2, mock immunization (PBS) (antibody)”, the OD410 in [1] was 0.12; in assay [2] it was 0.215; in assay [3], 0.114; in assay [4], 0.125; in assay [5], 0.16; in [6], 0.15. In addition, the OD410 in assay [7] came to 0.117; in assay [8], 0.148; in assay [9], 0.114; in [10], 0.146; in assay [11], 0.246; in assay [12], 0.302. The OD410 is 0.516 in [13]; 0.208 in assay [14]; 0.127 in [15]; 0.442 in assay [16]; 0.17 in assay [17]; 0.17 in assay [18].

Take “serum of mouse 18, protocol 2, mock immunization (PBS) (antibody)”: the OD410 in assay [1] came to 0.134; in assay [2] it was 0.136; in assay [3], 0.134; in assay [4], 0.114; in [5], 0.126; in assay [6] it was 0.122. Moreover, the OD410 in [7] was 0.119; in assay [8], 0.217; in assay [9], 0.126; in assay [10], 0.12; in assay [11], 0.356; in assay [12], 0.162. Further, the OD410 is 0.279 in assay [13]; 0.161 in [14]; 0.166 in assay [15]; 0.228 in [16]; 0.135 in [17]; 0.127 in assay [18].

For “serum of mouse 17, protocol 2, mock immunization (PBS) (antibody)”, the OD410 worked out at 0.125 in [1]; 0.321 in [2]; 0.138 in assay [3]; 0.125 in [4]; 0.184 in assay [5]; 0.159 in assay [6]. The OD410 was 0.112 in assay [7]; 0.269 in assay [8]; 0.119 in [9]; 0.142 in assay [10]; 0.754 in assay [11]; 0.487 in [12]. Further, the OD410 in [13] worked out at 0.5; in [14], 0.286; in [15], 0.191; in assay [16] it was 0.67; in [17], 0.185; in assay [18], 0.248.

On to “serum of mouse 28, protocol 2, mock immunization (PBS) (antibody)”, for which the OD410 in assay [1] is 0.123; in assay [2], 0.146; in [3] it was 0.143; in [4], 0.107; in assay [5] it was 0.122; in [6], 0.114. The OD410 in [7] amounted to 0.128; in [8] it was 0.204; in assay [9], 0.128; in [10], 0.119; in [11], 0.354; in [12], 0.179. Also, the OD410 amounted to 0.165 in assay [13]; 0.141 in assay [14]; 0.167 in assay [15]; 0.261 in [16]; 0.117 in assay [17]; 0.133 in assay [18].

For “serum of mouse 14, protocol 2, mock immunization (PBS) (antibody)”, the OD410 in assay [1] was found to be 0.145; in assay [2], 0.178; in assay [3], 0.126; in assay [4] it was 0.159; in assay [5], 0.15; in assay [6] it was 0.143. For the same substance, the OD410 in [7] was determined as 0.124; in assay [8], 0.156; in assay [9], 0.123; in assay [10], 0.163; in assay [11], 0.246; in [12], 0.171. Further, the OD410 in assay [13] amounted to 0.288; in assay [14], 0.224; in [15] it was 0.143; in assay [16], 0.212; in [17], 0.156; in assay [18], 0.151.

“serum of mouse 30, protocol 2, mock immunization (PBS) (antibody)”: the OD410 in assay [1] was determined as 0.119; in assay [3] it was 0.132; in [4], 0.113; in assay [7], 0.129; in assay [8], 0.224; in assay [9], 0.126. Moreover, the OD410 in [10] came to 0.119; in assay [11] it was 0.381; in [13] it was 0.226; in assay [14] it was 0.148; in assay [15], 0.157; in assay [17], 0.128.

“serum of mouse 13, protocol 2, mock immunization (PBS) (antibody)”: the OD410 in assay [1] stood at 0.113; in [2], 0.151; in assay [3] it was 0.121; in assay [4] it was 0.123; in assay [5], 0.169; in [6] it was 0.142. For the same substance, the OD410 is 0.13 in assay [7]; 0.161 in assay [8]; 0.126 in [9]; 0.133 in assay [10]; 0.338 in assay [11]; 0.177 in [12]. Further, the OD410 in assay [13] amounted to 0.474; in assay [14], 0.238; in assay [15], 0.126; in assay [16], 0.288; in [17], 0.172; in assay [18], 0.143.

On to “serum of mouse 27, protocol 2, mock immunization (PBS) (antibody)”, for which the OD410 turned out to be 0.116 in assay [1]; 0.113 in assay [2]; 0.13 in assay [3]; 0.115 in [4]; 0.113 in assay [5]; 0.112 in [6]. The OD410 in [7] was determined as 0.129; in assay [8], 0.175; in assay [9], 0.124; in assay [10], 0.12; in assay [11] it was 0.324; in [12] it was 0.146. In addition, the OD410 worked out at 0.201 in assay [13]; 0.155 in [14]; 0.14 in assay [15]; 0.216 in assay [16]; 0.136 in [17]; 0.115 in [18].

Turning to “serum of mouse 26, protocol 2, mock immunization (PBS) (antibody)”, the OD410 in assay [1] was determined as 0.118; in [2], 0.146; in [3], 0.144; in [4], 0.114; in [5] it was 0.133; in assay [6], 0.126. For the same substance, the OD410 in assay [7] is 0.137; in assay [8] it was 0.178; in [9] it was 0.144; in assay [10], 0.12; in assay [11] it was 0.416; in assay [12] it was 0.193. In addition, the OD410 turned out to be 0.203 in assay [13]; 0.146 in assay [14]; 0.154 in assay [15]; 0.281 in assay [16]; 0.123 in assay [17]; 0.133 in assay [18].

The values above are taken from patent US20090239794A1, “HCV F PROTEIN AND USES THEREOF” (priority 2004, published 2009).
